# Experimental data as given in article PMC9324360.
# Experiments:
# Experiment in all cases: MST
# Details in all cases: 0.5 mM Mg2+; MST: 10 mM Tris-HCl pH 8.5, 0.5 mM MgSO4, 50 mM KCl, 10 mM (NH4)2SO4, 0.05% Tween 20; 1 nM oligo; 10 min at 55 °C, measured at 25 °C
# [1] = system: Tt72 pol D78A/S616A (Thermus thermophilus MAT72 phage vB_Tt72)
# [2] = system: Tt72 DNA polymerase WT (Thermus thermophilus MAT72 phage vB_Tt72)
# [3] = system: Tt72 pol E17A (Thermus thermophilus MAT72 phage vB_Tt72)
# [4] = system: Tt72 pol D78A/E389A (Thermus thermophilus MAT72 phage vB_Tt72)
# [5] = system: Tt72 pol L27A (Thermus thermophilus MAT72 phage vB_Tt72)
# [6] = system: Tt72 pol D184A (Thermus thermophilus MAT72 phage vB_Tt72)
# [7] = system: Tt72 pol D78A/D615A (Thermus thermophilus MAT72 phage vB_Tt72)
# [8] = system: Tt72 pol D15A (Thermus thermophilus MAT72 phage vB_Tt72)
# [9] = system: Tt72 pol D78A/D384A (Thermus thermophilus MAT72 phage vB_Tt72)
# [10] = system: Tt72 pol D78A (exo-) (Thermus thermophilus MAT72 phage vB_Tt72)
# [11] = system: Tt72 pol Y180A (Thermus thermophilus MAT72 phage vB_Tt72)
sequence,measurement,setting,value
TGGCTGCTTCTAAGCCAACATCCT / CTAGTGAGGATGTTGGCTTAGAAGCAGCCA [polTt72-Cy5/polTt72-long primer/template],Kd,[1],129 nM
same,Kd,[2],2 nM
same,Kd,[3],529 nM
same,Kd,[4],68 nM
same,Kd,[5],32 nM
same,Kd,[6],144 nM
same,Kd,[7],78 nM
same,Kd,[8],232 nM
same,Kd,[9],100 nM
same,Kd,[10],109 nM
same,Kd,[11],229 nM
